According to PMC7613635 (Nature structural & molecular biology, 2022):

Columns and labels:
[1] = target: T1, Gallus gallus FANCD2 (Gallus gallus (chicken), UniProt Q68Y81 1-1439); test: cross-linking
[2] = target: T1, Gallus gallus FANCD2; test: cryo-EM structure

T1 sequence (Q68Y81 whole entry): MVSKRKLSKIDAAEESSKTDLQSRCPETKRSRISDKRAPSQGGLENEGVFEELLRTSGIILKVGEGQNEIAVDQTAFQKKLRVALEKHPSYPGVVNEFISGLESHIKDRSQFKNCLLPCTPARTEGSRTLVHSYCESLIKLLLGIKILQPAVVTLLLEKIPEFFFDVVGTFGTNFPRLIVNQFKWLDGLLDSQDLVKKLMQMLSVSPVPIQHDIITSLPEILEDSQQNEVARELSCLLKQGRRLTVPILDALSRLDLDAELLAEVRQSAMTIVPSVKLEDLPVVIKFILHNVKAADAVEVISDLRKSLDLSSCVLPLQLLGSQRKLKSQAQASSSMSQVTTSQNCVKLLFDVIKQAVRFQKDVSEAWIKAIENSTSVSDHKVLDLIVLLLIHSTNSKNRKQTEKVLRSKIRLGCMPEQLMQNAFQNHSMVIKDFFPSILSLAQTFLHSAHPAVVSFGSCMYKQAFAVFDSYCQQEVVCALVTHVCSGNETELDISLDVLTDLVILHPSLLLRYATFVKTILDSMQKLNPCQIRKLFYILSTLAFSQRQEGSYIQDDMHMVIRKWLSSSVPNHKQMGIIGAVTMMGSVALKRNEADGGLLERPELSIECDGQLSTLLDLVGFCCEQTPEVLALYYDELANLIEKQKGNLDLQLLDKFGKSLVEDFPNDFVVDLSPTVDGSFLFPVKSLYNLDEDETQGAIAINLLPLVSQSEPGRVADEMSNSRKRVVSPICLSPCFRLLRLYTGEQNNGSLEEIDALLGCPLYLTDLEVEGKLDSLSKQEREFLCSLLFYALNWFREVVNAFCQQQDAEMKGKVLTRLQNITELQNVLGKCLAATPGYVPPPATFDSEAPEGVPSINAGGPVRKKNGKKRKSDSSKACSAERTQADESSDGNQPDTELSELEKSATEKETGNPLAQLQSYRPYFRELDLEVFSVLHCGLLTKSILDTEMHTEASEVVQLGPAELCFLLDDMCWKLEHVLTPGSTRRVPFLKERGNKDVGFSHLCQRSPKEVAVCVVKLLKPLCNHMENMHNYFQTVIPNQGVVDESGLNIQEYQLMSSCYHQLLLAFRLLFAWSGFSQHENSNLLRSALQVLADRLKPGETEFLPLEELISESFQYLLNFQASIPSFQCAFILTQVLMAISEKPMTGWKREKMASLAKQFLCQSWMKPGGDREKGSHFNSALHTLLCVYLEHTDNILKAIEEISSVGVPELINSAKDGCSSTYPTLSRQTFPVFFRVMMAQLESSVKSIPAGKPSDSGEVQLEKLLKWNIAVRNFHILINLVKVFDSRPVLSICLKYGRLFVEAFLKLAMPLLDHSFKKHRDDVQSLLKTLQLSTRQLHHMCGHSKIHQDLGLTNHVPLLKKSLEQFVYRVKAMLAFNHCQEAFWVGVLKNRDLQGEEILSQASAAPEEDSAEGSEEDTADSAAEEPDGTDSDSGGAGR

Row | Binder | binding result [1] | binding result [2]
1 | Gallus gallus FANCI, wild type (natural protein, Gallus gallus (chicken), UniProt B0I564 1-1338, looked up) MAQRILQLAAEGSPERLQEALQGLTEGELGDMVTRQALRGRETAALLKGIFKGSPCSQQSGVLRRLQVYKHCVSLVESGDLHVGKVSEIIGLLMLEARQLPGHALAELATLFVEVIKRGSLSNGKSLELFSTVLTALSNSKESLAYGKGELNGEEFKKQLINTLCSSKWDPQCVIHLANMFRDIPLSGEELQFVVEKVLRMFSKLDLQEIPPLVYQLLLLSAKGSKKTVLEGIISFFNQLDKRQKEEQRVPQSADLEVATVPLDQLRHVEGTVILHIVSAINLDQDIGEELIKHLKTEQQKDPGKALCPFSVSLLLSTAVKHRLQEQIFDFLKTSITRSCKDLQILQASKFLQDLCPQQYDVTAVILEVVKNSAFGWDHVTQGLVDLGFSLMESYEPKKSFGGKAAETNLGLSKMPAQQACKLGASILLETFKVHEPIRSDILEQVLNRVLTKAASPVSHFIDLLSNIVVSAPLVLQNSSSRVTETFDNLSFLPIDTVQGLLRAVQPLLKVSMSVRDSLILVLQKAIFSRQLDARKAAVAGFLLLLRNFKILGSLTSSQCSQAIGATQVQADVHACYNSAANEAFCLEILGSLRRCLSQQADVRLMLYEGFYDVLRRNSQLASSIMETLLSQIKQYYLPQQDLLPPLKLEGCIMAQGDQIFLQEPLAHLLCCIQHCLAWYKSTVHLCKGAEDEEEEEDVGFEQNFEEMLESVTRRMIKSELEDFELDKSADFSPSSGVGVKNNIYAIQVMGICEVLIEYNFKIGNFSKNKFEDVLGLFTCYNKLSEILKEKAGKNKSTLGNRIARSFLSMGFVSTLLTALFRDNAQSHEESLAVLRSSTEFMRYAVSVALQKVQQLEEMGQTDGPDGQNPEKMFQNLCKITRVLLWRYTSIPTAVEESGKKKGKSISLLCLEGLLRIFNTMQQLYAARIPQFLQALDITDGDAEEADINVTEKAAFQIRQFQRSLVNQLSSAEDDFNSKETQLLITILSTLSKLLDPGSQQFLQFLTWTVKICKENALEDLSCCKGLLTLLFSLHVLYKSPVSLLRELAQDIHACLGDIDQDVEIESRSHFAIVNVKTAAPTVCLLVLGQADKVLEEVDWLIKRLTILGSDTSEDSTQASNQTQALEKGVILQLGTLLTVFHELVQTALPAGSCVDSLLRSLSKTYAILTSLIKHYIQACRSTSNTVPGRLEKLVKLSGSHLTPQCYSFITYVQNIHSESLSFAEEKKKKKKEDETAVVSTVMAKVLRDTKPIPNLIFAIEQYEKFLIHLSKKSKVNLMQYMKLSTSRDFRINASMLDSVLQEQNTEDAENEPDNNQSGTAEQPDENQEPQKKRRRKK | binds | –
2 | phosphomimetic chicken FANCI (I^3D) (natural protein, Gallus gallus (chicken), UniProt B0I564 1-1338, looked up) MAQRILQLAAEGSPERLQEALQGLTEGELGDMVTRQALRGRETAALLKGIFKGSPCSQQSGVLRRLQVYKHCVSLVESGDLHVGKVSEIIGLLMLEARQLPGHALAELATLFVEVIKRGSLSNGKSLELFSTVLTALSNSKESLAYGKGELNGEEFKKQLINTLCSSKWDPQCVIHLANMFRDIPLSGEELQFVVEKVLRMFSKLDLQEIPPLVYQLLLLSAKGSKKTVLEGIISFFNQLDKRQKEEQRVPQSADLEVATVPLDQLRHVEGTVILHIVSAINLDQDIGEELIKHLKTEQQKDPGKALCPFSVSLLLSTAVKHRLQEQIFDFLKTSITRSCKDLQILQASKFLQDLCPQQYDVTAVILEVVKNSAFGWDHVTQGLVDLGFSLMESYEPKKSFGGKAAETNLGLSKMPAQQACKLGASILLETFKVHEPIRSDILEQVLNRVLTKAASPVSHFIDLLSNIVVSAPLVLQNSSSRVTETFDNLSFLPIDTVQGLLRAVQPLLKVSMSVRDSLILVLQKAIFSRQLDARKAAVAGFLLLLRNFKILGSLTSDQCDQAIGADQVQADVHACYNSAANEAFCLEILGSLRRCLSQQADVRLMLYEGFYDVLRRNSQLASSIMETLLSQIKQYYLPQQDLLPPLKLEGCIMAQGDQIFLQEPLAHLLCCIQHCLAWYKSTVHLCKGAEDEEEEEDVGFEQNFEEMLESVTRRMIKSELEDFELDKSADFSPSSGVGVKNNIYAIQVMGICEVLIEYNFKIGNFSKNKFEDVLGLFTCYNKLSEILKEKAGKNKSTLGNRIARSFLSMGFVSTLLTALFRDNAQSHEESLAVLRSSTEFMRYAVSVALQKVQQLEEMGQTDGPDGQNPEKMFQNLCKITRVLLWRYTSIPTAVEESGKKKGKSISLLCLEGLLRIFNTMQQLYAARIPQFLQALDITDGDAEEADINVTEKAAFQIRQFQRSLVNQLSSAEDDFNSKETQLLITILSTLSKLLDPGSQQFLQFLTWTVKICKENALEDLSCCKGLLTLLFSLHVLYKSPVSLLRELAQDIHACLGDIDQDVEIESRSHFAIVNVKTAAPTVCLLVLGQADKVLEEVDWLIKRLTILGSDTSEDSTQASNQTQALEKGVILQLGTLLTVFHELVQTALPAGSCVDSLLRSLSKTYAILTSLIKHYIQACRSTSNTVPGRLEKLVKLSGSHLTPQCYSFITYVQNIHSESLSFAEEKKKKKKEDETAVVSTVMAKVLRDTKPIPNLIFAIEQYEKFLIHLSKKSKVNLMQYMKLSTSRDFRINASMLDSVLQEQNTEDAENEPDNNQSGTAEQPDENQEPQKKRRRKK | – | binds
